Data from FireProtDB (doi:10.1002/prot.340090203).

Conditions: Escherichia coli (strain K12), reversible: yes, whole UniProt chain shown; for unfolding free energy: pH 7, 25 °C, GdnHCl, CD, Potassium phosphate 10 mM
[1] = pH 9, Thermal, DSC, Sodium tetraborate 1 mM

B1: Tryptophan synthase alpha chain wild type, P0A877 (protein)
chain: MERYESLFAQLKERKEGAFVPFVTLGDPGIEQSLKIIDTLIEAGADALELGIPFSDPLADGPTIQNATLRAFAAGVTPAQCFEMLALIRQKHPTIPIGLLMYANLVFNKGIDEFYAQCEKVGVDSVLVADVPVEESAPFRQAALRHNVAPIFICPPNADDDLLRQIASYGRGYTYLLSRAGVTGAENRAALPLNHLVAKLKEYNAAPPLQGFGISAPDQVKAAIDAGAAGAISGSAIVKIIEQHINEPEKMLAALKVFVQPMKAATRS
Q: For B1, which unfolding free energy is on record?
A: The unfolding free energy was 8.8 kcal/mol.

Q: What about the unfolding free energy (transition: 3) of the same protein?
A: The unfolding free energy was 4.6 kcal/mol.

Q: What about the Tm [1] of the same protein?
A: The Tm was 54.1 °C.

Q: What about the “heat capacity change of unfolding” value [1] of the same protein?
A: Its value is 4.6 kcal/mol/K.

Q: And the “unfolding enthalpy (calorimetric)” value [1]?
A: The value was 120 kcal/mol.
